Earlier results in US20230023414A1, “METHODS AND DEVICES FOR TREATING A DISEASE WITH BIOTHERAPEUTICS” (PROGENITY, INC., priority 2018, published 2023).

Conditions: SC administration

B1: evolocumab (antibody, chains of the INN, looked up, V domains shown)
VH: EVQLVQSGAEVKKPGASVKVSCKASGYTLTSYGISWVRQAPGQGLEWMGWVSFYNGNTNYAQKLQGRGTMTTDPSTSTAYMELRSLRSDDTAVYYCARGYGMDVWGQGTTVTVSS
VL: ESALTQPASVSGSPGQSITISCTGTSSDVGGYNSVSWYQQHPGKAPKLMIYEVSNRPSGVSNRFSGSKSGNTASLTISGLQAEDEADYYCNSYTSTSMVFGGGTKLTVL
- Approved Dosing Info: Bio Avail: 82%

B2: emicizumab (antibody, chains of the INN, looked up, V domains shown)
VH: QVQLVQSGSELKKPGASVKVSCKASGYTFTDNNMDWVRQAPGQGLEWMGDINTRSGGSIYNEEFQDRVIMTVDKSTDTAYMELSSLRSEDTATYHCARRKSYGYYLDEWGEGTLVTVSS
VL: DIQMTQSPSSLSASVGDRVTITCKASRNIERQLAWYQQKPGQAPELLIYQASRKESGVPDRFSGSRYGTDFTLTISSLQPEDIATYYCQQYSDPPLTFGGGTKVEIK
VH2: QVQLVESGGGLVQPGGSLRLSCAASGFTFSYYDIQWVRQAPGKGLEWVSSISPSGQSTYYRREVKGRFTISRDNSKNTLYLQMNSLRAEDTAVYYCARRTGREYGGGWYFDYWGQGTLVTVSS
VL2: DIQMTQSPSSLSASVGDRVTITCKASRNIERQLAWYQQKPGQAPELLIYQASRKESGVPDRFSGSRYGTDFTLTISSLQPEDIATYYCQQYSDPPLTFGGGTKVEIK
- Approved Dosing Info: Bio Avail: 85%

B3: pegfilgrastim (protein, UniProt P09919 31-207, looked up)
Granulocyte …: TPLGPASSLPQSFLLKCLEQVRKIQGDGAALQEKLVSECATYKLCHPEELVLLGHSLGIPWAPLSSCPSQALQLAGCLSQLHSGLFLYQGLLQALEGISPELGPTLDTLQLDVADFATTIWQQMEELGMAPALQPTQGAMPAFASAFQRRAGGVLVASHLQSFLEVSYRVLRHLAQP
modifications: N-terminal Met, 20 kDa PEG
- Approved Dosing Info: Bio Avail: 70%

B4: concizumab (antibody, chains of the INN, looked up, V domains shown)
VH: EVQLVESGGGLVKPGGSLRLSCAASGFTFSNYAMSWVRQTPEKRLEWVATISRSGSYSYFPDSVQGRFTISRDNAKNSLYLQMNSLRAEDTAVYYCARLGGYDEGDAMDSWGQGTTVTVSS
VL: DIVMTQTPLSLSVTPGQPASISCKSSQSLLESDGKTYLNWYLQKPGQSPQLLIYLVSILDSGVPDRFSGSGSGTDFTLKISRVEAEDVGVYYCLQATHFPQTFGGGTKVEIK
- Baseline dose: Bioavail. (dose info for non-approved agents from clinical trial information): 93.0%
